# Experimental data: patent US7201905B2, “Bi-functional cancer treatment agents” (Greenville Hospital System, priority 2001, dated 2007)
# Assays:
# [1] = system: L-1210 tumor cells; settings: inhibiting cell growth and differentiation, read-out: IC50, cytotoxic effects against L-1210 tumor cells; cited from earlier work
# [2] = system: T-47D human breast cancer cells; test: T-47D human breast cancer cell proliferation assay (FIG. 4); type: cell-based
# Text: The x-axis represents the hPRL-G129R concentration either in the absence (open bars) or presence of 4-OH-Tamoxifen. Each data point represents a mean of at least three independent experiments with triplicate wells.
# [3] = system: T-47D human breast cancer cells; test: T-47D co-culture method with L cells (FIG. 3); type: cell-based; settings: co-cultured with L-PRL or L-hPRL-G129R cells, dose-response
# Text: The x-axis represents the co-cultured L cell (control, L-PRL or L-hPRL-G129R cell numbers. Each data point represents a mean of at least three independent experiments with triplicate wells.
# [4] = system: STAT5 phosphorylation in T-47D human breast cancer cells; test: STAT 5 phosphorylation/immunoprecipitation assay; type: cell-based; settings: T-47D cells, 30 min incubation, anti-phosphotyrosine blot
# Protocol: T-47D cells are grown in RPMI-1640 medium containing 10% Charcoal Stripped Fetal Bovine Serum (CSFBS; growth medium). For each experiment, cells are passed into 6 well culture plates in growth medium till reach 90% confluence. On the day of the experiment, cells are depleted in serum free media for one hour and incubated in hPRL, hPRL-G129R or combination of two for 30 min. After treatment, T47-D cells are washed once with ice cold PBS and collected by gentle scraping in 1 ml ice cold lysis buffer [20 mM Tris-Cl (pH 7.4), 100 mM NaCl, 2 mM EDTA, 1% NP-40, 1 mM phenylmethylsulfonyl fluoride, 10 ug/ml aprotinin, 10 ug/ml leupeptin]. The lysis mixture is then passed through a 22 gauge needle several times avoiding air bubbles and spin at maximum speed for 20 minutes. The supernatant is then transferred to a new microcentrifuge tube. Five μg of STAT5 monoclonal antibody is then added to 100 microliters (200–500 micrograms total protein) of cell lysate along with 400 microliters of ddH20 and 500 microliters of 2×IP buffer [1% Triton X-100, 150 mM NaCl, 10 mM Tris pH 7.4, 1 mM EDTA, 1 mM EGTA, 0.2 mM sodium vanadate, 0.2 mM PMSF, 0.5% NP-40] to each reaction. After overnight incubation at 4° C. and gentle rotation, 50 microliters of prewashed (1×IP buffer) protein A agarose beads are added to each IP reaction and continue the Incubation for another 2 hours at 4C. […]
Molecule,IC50 [1] [nM],"effect on T-47D cell proliferation ([2]; hPRL-G129R alone, dose-response)",effect on T-47D cell proliferation in combination ([2]; in presence of 4-OH-Tamoxifen),"effect on T-47D cells, co-culture method [3]",block of signal transduction (STAT5 phosphorylation) induced by hPRL [4]
"COc1ccc2c(c[n+](C)c3c4cc5c(cc4ccc23)OCO5)c1OC [chelerythrine, 1,2-dimethoxy-12-methyl[1,3]benzodioxolo[5,6-c]phenanthridinium]",53,,,,
"hPRL-G129R: human prolactin with substitution of Gly to Arg at position 129 (SEQ ID NO: 34), hPRLR antagonist (protein) LPICPGGAARCQVTLRDLFDRAVVLSHYIHNLSSEMFSEFDKRYTHGRGFITKAINSCHTSSLATPEDKEQAQQMNQKDFLSLIVSILRSWNEPLYHLVTEVRGMQEAPEAILSKAVEIEEQTKRLLEGMELIVSQVHPETKENEIYPVWSGLPSLQMADEESRLSAYYNLLHCLRRDSHKIDNYLKLLKCRIIHNNNC",,dose-response inhibitory effects,additive effects with 4-OH-Tamoxifen,dose-response inhibitory effects,able to block the signal transduction induced by hPRL
hPRL: human prolactin (protein) LPICPGGAARCQVTLRDLFDRAVVLSHYIHNLSSEMFSEFDKRYTHGRGFITKAINSCHTSSLATPEDKEQAQQMNQKDFLSLIVSILRSWNEPLYHLVTEVRGMQEAPEAILSKAVEIEEQTKRLLEGMELIVSQVHPETKENEIYPVWSGLPSLQMADEESRLSAYYNLLHCLRRDSHKIDNYLKLLKCRIIHNNNC,,,,stimulatory effects,
